In PMC7112232, “Computational design of substrate selective inhibition” (PLoS Computational Biology, 2020):

Substrate: NC(=O)[C@@H]1CCCN1C(=O)[C@H](Cc1cnc[nH]1)NC(=O)[C@@H]1CCC(=O)N1
Assay: RP-HPLC cleavage assay with purified rhPOP, Michaelis-Menten fit (Km)
Assay type: biochemical, Homo sapiens
Conditions: occupies the S3-S1' sub-pockets

B1: Prolyl Oligopeptidase (POP) (Homo sapiens) (protein)
chain: MLSLQYPDVYRDETAVQDYHGHKICDPYAWLEDPDSEQTKAFVEAQNKITVPFLEQCPIRGLYKERMTELYDYPKYSCHFKKGKRYFYFYNTGLQNQRVLYVQDSLEGEARVFLDPNILSDDGTVALRGYAFSEDGEYFAYGLSASGSDWVTIKFMKVDGAKELPDVLERVKFSCMAWTHDGKGMFYNSYPQQDGKSDGTETSTNLHQKLYYHVLGTDQSEDILCAEFPDEPKWMGGAELSDDGRYVLLSIREGCDPVNRLWYCDLQQESSGIAGILKWVKLIDNFEGEYDYVTNEGTVFTFKTNRQSPNYRVINIDFRDPEESKWKVLVPEHEKDVLEWIACVRSNFLVLCYLHDVKNILQLHDLTTGALLKTFPLDVGSIVGYSGQKKDTEIFYQFTSFLSPGIIYHCDLTKEELEPRVFREVTVKGIDASDYQTVQIFYPSKDGTKIPMFIVHKKGIKLDGSHPAFLYGYGGFNISITPNYSVSRLIFVRHMGGILAVANIRGGGEYGETWHKGGILANKQNCFDDFQCAAEYLIKEGYTSPKRLTINGGSNGGLLVAACANQRPDLFGCVIAQVGVMDMLKFHKYTIGHAWTTDYGCSDSKQHFEWLVKYSPLHNVKLPEADDIQYPSMLLLTADHDDRVVPLHSLKFIATLQYIVGRSRKQSNPLLIHVDTKAGHGAGKPTAKVIEEVSDMFAFIARCLNVDWIP
notes: recombinant human POP (rhPOP), GST moiety removed
B1 showed a Km of 690 µM.
